Assay [1] addresses CAP domain of pathogen-related yeast protein-1 (Pry1) from Saccharomyces cerevisiae (Saccharomyces cerevisiae). The assay is described as follows: SEC; 20 μg Pry1CAP injected on a Yarra SEC-2000 column, 0.5 ml/min, PBS pH 7.4 as mobile phase, calibrated with Bio-Rad gel filtration standards, in triplicate.
Assay [2] has as its target T1, Pathogen-related yeast 1 (Pry1), CAP domain (Pry1CAP) (Saccharomyces cerevisiae, UniProt P47032).
T1 construct: C-terminal CAP domain, Ser151 through Ala296 (Pry1CAP)
T1 sequence (P47032 151-296): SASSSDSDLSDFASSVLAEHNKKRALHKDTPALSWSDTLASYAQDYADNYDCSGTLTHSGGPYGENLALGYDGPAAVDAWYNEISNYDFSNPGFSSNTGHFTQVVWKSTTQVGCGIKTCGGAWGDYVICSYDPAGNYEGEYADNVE
The assay is described as follows: [3H]-cholesterol saturation radioligand binding with purified protein.

Among the data in publication PMC4921858, “Structural and functional characterization of the CAP domain of pathogen-related yeast 1 (Pry1) protein” (Scientific Reports, 2016) are stoichiometry N and Kd values, retold here.

In assay [1], “CAP domain of pathogen-related yeast protein-1 (Pry1) from Saccharomyces cerevisiae (domain or fragment)” had a stoichiometry N of 2.

The compound `CC(C)CCC[C@@H](C)[C@H]1CC[C@H]2[C@@H]3CC=C4C[C@@H](O)CC[C@]4(C)[C@H]3CC[C@]12C` [cholesterol] came in with a Kd in assay [2] of 2.08 ± 0.07 µM.
